Target: retromer–SNX3 complex (VPS26A, VPS35-VPS29 fusion, SNX3) (human) (UniProt Q96QK1)

Binder | proportion of liposomes tubulated (cryo-EM; liposomes with retromer, SNX3 and the peptide lacking the motif) | mean tube length per liposome (liposome tubulation with retromer and SNX3) | proportion of liposomes tubulated (cryo-EM; 2.5 uM retromer, 8.75 uM SNX3, 25 uM peptide, 600 uM liposomes, overnight at 4°C; n = 3)
KRQKGKPKRKSK [AAVR cytosolic tail peptide lacking the predicted sorting signal (residues 956-967)] | 0% |  | 
AQPELYLLNTMDADSLVSR [DMT1-II cargo peptide (residues 550-568)] |  | 568 nm | 4.15%
KRQKGKPKRKSKYKILDAT [AAVR cytosolic tail peptide (residues 956-974)] |  | 503 nm | 3.54%
